This passage reports interaction score results from publication PMC10397247.

One assay addresses T1, Core_IIIN-es_KKKK.
T1 chain: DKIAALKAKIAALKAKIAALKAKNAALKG
The assay can be described thus: two-hybrid library CCmax.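 Note: natural log of median RNA to DNA barcode read ratio; higher means stronger binding.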 The settings on record: mean of both orientations.

The next assay concerns the target T2, P6mSN.
T2 chain: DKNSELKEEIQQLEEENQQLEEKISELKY
The assay can be described thus: two-hybrid library CCNG1.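 Note: natural log of median RNA to DNA barcode read ratio; higher means stronger binding.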

The next assay addresses T3, P7mSN.
T3 chain: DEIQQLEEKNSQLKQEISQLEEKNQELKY
The assay can be described thus: two-hybrid library CCNG1.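 Note: natural log of median RNA to DNA barcode read ratio; higher means stronger binding.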

Another assay has as its target T4, P8mSN.
T4 chain: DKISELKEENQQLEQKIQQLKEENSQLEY
As to the kind of experiment: two-hybrid library CCNG1.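 Note: natural log of median RNA to DNA barcode read ratio; higher means stronger binding.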

A further assay has as its target T5, P4mSN.
T5 chain: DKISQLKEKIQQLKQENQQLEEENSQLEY
The assay can be described thus: two-hybrid library CCNG1.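 Note: natural log of median RNA to DNA barcode read ratio; higher means stronger binding.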

Another assay addresses T6, P12mSN.
T6 chain: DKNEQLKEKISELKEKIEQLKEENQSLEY
The assay can be described thus: two-hybrid library CCNG1.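 Note: natural log of median RNA to DNA barcode read ratio; higher means stronger binding.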

The target in a further assay is T7, P3mSN.
T7 chain: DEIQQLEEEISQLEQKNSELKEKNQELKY
As to the kind of experiment: two-hybrid library CCNG1.

For the next assay, the target named is T8, P11mSN.
T8 chain: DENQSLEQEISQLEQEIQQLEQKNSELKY
The assay can be described thus: two-hybrid library CCNG1.

The target of a further assay is T9, P10mSN.
T9 chain: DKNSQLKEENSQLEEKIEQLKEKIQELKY
The assay can be described thus: two-hybrid library CCNG1.

A further assay deals with T10, P2mSN.
T10 chain: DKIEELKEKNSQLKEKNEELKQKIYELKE
As to the kind of experiment: two-hybrid library CCNG1.

The next assay has as its target T11, P1mSN.
T11 chain: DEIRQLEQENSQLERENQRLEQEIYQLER
The assay can be described thus: two-hybrid library CCNG1.

Another assay concerns the target T12, P9mSN.
T12 chain: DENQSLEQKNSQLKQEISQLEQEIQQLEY
The assay can be described thus: two-hybrid library CCNG1.

The target of a further assay is T13, P5mSN.
T13 chain: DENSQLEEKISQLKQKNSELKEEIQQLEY
The assay can be described thus: two-hybrid library CCNG1.

In the next assay the target is T14, Core_NIIN-es_KKEK.
T14 chain: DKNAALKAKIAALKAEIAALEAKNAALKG
The assay can be described thus: two-hybrid library CCmax. The settings on record: mean of both orientations.

A further assay deals with T15, Core_NNNI-es_KKKK.
T15 chain: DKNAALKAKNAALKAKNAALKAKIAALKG
As to the kind of experiment: two-hybrid library CCmax. The following applies: mean of both orientations.

The next assay addresses T16, Core_NNIN-es_KKKK.
T16 chain: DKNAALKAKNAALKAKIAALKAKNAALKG
As to the kind of experiment: two-hybrid library CCmax. The following applies: mean of both orientations.

Assay [1] concerns the target T17, P4SC2.
T17 chain: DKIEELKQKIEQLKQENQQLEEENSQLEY
The assay can be described thus: two-hybrid library CCNG1.

Assay [2] addresses T17, P4SC2. The assay can be described thus: two-hybrid library CCmax. The settings on record: mean of both orientations.
The target of another assay is T18, 4H481-AA.
T18 chain: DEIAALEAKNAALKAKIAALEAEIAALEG
As to the kind of experiment: two-hybrid library CCmax. The settings on record: mean of both orientations.

The next assay addresses T19, 4H1082-AA.
T19 chain: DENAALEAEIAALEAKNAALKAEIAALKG
As to the kind of experiment: two-hybrid library CCmax.

Another assay concerns the target T20, 4H2935-AA.
T20 chain: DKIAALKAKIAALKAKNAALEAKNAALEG
As to the kind of experiment: two-hybrid library CCmax. The following applies: mean of both orientations.

In the next assay the target is T21, 4H662-AA.
T21 chain: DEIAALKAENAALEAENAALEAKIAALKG
As to the kind of experiment: two-hybrid library CCmax. The following applies: mean of both orientations.

A further assay has as its target T22, 4H1103-AA.
T22 chain: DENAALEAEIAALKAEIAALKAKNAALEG
As to the kind of experiment: two-hybrid library CCmax. The following applies: mean of both orientations.

A further assay has as its target T23, 4H327-AA.
T23 chain: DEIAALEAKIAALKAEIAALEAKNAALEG
The assay can be described thus: two-hybrid library CCmax. The settings on record: mean of both orientations.

A further assay concerns the target T24, 4H2608-AA.
T24 chain: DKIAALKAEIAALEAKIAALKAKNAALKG
The assay can be described thus: two-hybrid library CCmax. The settings on record: mean of both orientations.

In the next assay the target is T25, 4H1405-AA.
T25 chain: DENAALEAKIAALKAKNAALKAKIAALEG
As to the kind of experiment: two-hybrid library CCmax. The settings on record: mean of both orientations.

For a further assay, the target named is T26, 4H4033-AA.
T26 chain: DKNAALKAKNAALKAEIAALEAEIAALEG
The assay can be described thus: two-hybrid library CCmax. The following applies: mean of both orientations.

A further assay deals with T27, 4H3605-AA.
T27 chain: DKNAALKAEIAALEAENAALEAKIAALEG
As to the kind of experiment: two-hybrid library CCmax. The following applies: mean of both orientations.

A further assay concerns the target T28, 4H2211-AA.
T28 chain: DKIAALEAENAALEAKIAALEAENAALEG
As to the kind of experiment: two-hybrid library CCmax. The following applies: mean of both orientations.

A further assay deals with T29, 4H3625-AA.
T29 chain: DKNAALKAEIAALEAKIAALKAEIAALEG
The assay can be described thus: two-hybrid library CCmax. The following applies: mean of both orientations.

The target in a further assay is T30, 4H2536-AA.
T30 chain: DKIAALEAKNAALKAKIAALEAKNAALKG
The assay can be described thus: two-hybrid library CCmax. The settings on record: mean of both orientations.

A further assay addresses T31, 4H1350-AA.
T31 chain: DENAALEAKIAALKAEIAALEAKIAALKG
As to the kind of experiment: two-hybrid library CCmax. The settings on record: mean of both orientations.

The target in another assay is T32, 4H1198-AA.
T32 chain: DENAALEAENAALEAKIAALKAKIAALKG
As to the kind of experiment: two-hybrid library CCmax. The settings on record: mean of both orientations.

For another assay, the target named is T33, 4H3664-AA.
T33 chain: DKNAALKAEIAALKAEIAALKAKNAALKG
The assay can be described thus: two-hybrid library CCmax. The following applies: mean of both orientations.

The target in the next assay is T34, 4H2726-AA.
T34 chain: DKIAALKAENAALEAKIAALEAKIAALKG
As to the kind of experiment: two-hybrid library CCmax. The settings on record: mean of both orientations.

Another assay deals with T35, 4H3922-AA.
T35 chain: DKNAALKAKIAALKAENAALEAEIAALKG
As to the kind of experiment: two-hybrid library CCmax. The settings on record: mean of both orientations.

In another assay the target is T36, 4H1017-AA.
T36 chain: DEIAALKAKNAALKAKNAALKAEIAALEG
The assay can be described thus: two-hybrid library CCmax.

The target of a further assay is T37, 4H2614-AA.
T37 chain: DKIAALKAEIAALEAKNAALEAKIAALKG
As to the kind of experiment: two-hybrid library CCmax. The settings on record: mean of both orientations.

The next assay deals with T38, 4H369-AA.
T38 chain: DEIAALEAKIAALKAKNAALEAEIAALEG
The assay can be described thus: two-hybrid library CCmax. The following applies: mean of both orientations.

For another assay, the target named is T39, 4H2238-AA.
T39 chain: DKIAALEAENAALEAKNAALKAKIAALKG
As to the kind of experiment: two-hybrid library CCmax. The settings on record: mean of both orientations.

The target in the next assay is T40, 4H2513-AA.
T40 chain: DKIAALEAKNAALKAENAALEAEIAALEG
As to the kind of experiment: two-hybrid library CCmax. The settings on record: mean of both orientations.

A further assay deals with T41, 4H55-AA.
T41 chain: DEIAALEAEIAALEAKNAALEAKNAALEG
As to the kind of experiment: two-hybrid library CCmax. The following applies: mean of both orientations.

A further assay addresses T42, Core_NIII-es_KEKK.
T42 chain: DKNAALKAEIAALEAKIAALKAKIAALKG
The assay can be described thus: two-hybrid library CCmax. The following applies: mean of both orientations.

A further assay deals with T43, P3A.
T43 chain: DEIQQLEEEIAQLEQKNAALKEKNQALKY
The assay can be described thus: two-hybrid library CCNG1.

In the next assay the target is T44, P11A.
T44 chain: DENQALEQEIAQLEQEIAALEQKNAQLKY
The assay can be described thus: two-hybrid library CCNG1.

The target in another assay is T45, P1A.
T45 chain: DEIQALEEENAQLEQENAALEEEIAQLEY
The assay can be described thus: two-hybrid library CCNG1.

A further assay concerns the target T46, P10A.
T46 chain: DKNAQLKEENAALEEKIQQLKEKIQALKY
As to the kind of experiment: two-hybrid library CCNG1.

Another assay deals with T47, P8A.
T47 chain: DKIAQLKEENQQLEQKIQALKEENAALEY
The assay can be described thus: two-hybrid library CCNG1.

The next assay has as its target T48, P12A.
T48 chain: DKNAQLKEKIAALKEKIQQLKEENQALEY
The assay can be described thus: two-hybrid library CCNG1.

The next assay concerns the target T49, P2A.
T49 chain: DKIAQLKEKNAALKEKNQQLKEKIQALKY
The assay can be described thus: two-hybrid library CCNG1.

Another assay has as its target T50, P6A.
T50 chain: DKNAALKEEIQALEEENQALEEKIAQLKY
As to the kind of experiment: two-hybrid library CCNG1.

A further assay concerns the target T51, P4A.
T51 chain: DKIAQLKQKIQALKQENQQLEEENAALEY
As to the kind of experiment: two-hybrid library CCNG1.

The next assay addresses T52, P5A.
T52 chain: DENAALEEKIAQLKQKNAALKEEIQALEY
As to the kind of experiment: two-hybrid library CCNG1.

A further assay addresses T53, P7A.
T53 chain: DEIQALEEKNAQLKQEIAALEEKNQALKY
The assay can be described thus: two-hybrid library CCNG1.

The next assay deals with T54, P9A.
T54 chain: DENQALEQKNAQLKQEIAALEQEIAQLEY
The assay can be described thus: two-hybrid library CCNG1.

For the molecule DEIAALEAEIAALEAEIAALEAENAALEG [Core_IIIN-es_EEEE], the interaction score with Core_IIIN-es_KKKK was 1.39.
For DKNSQLKEENSQLEEKIEQLKEKIQELKY [P10mSN], the interaction score was -0.212 with P6mSN; 0.521 in the assay with P7mSN; -0.586 with P8mSN; -0.959 in the assay with P4mSN; -0.911 with P12mSN; -0.696 with P3mSN. Besides, the interaction score with P11mSN was -0.495; with P10mSN, 0.0645; with P2mSN, -1.62; with P1mSN, 0.0169; with P9mSN, 0.647; with P5mSN, -0.891.
As for DENAALEAEIAALEAKIAALKAENAALEG [Core_NIIN-es_EEKE], the interaction score in the assay with Core_NIIN-es_KKEK was found to be 1.96.
In the assay with Core_NNNI-es_KKKK, DENAALEAENAALEAENAALEAEIAALEG [Core_NNNI-es_EEEE] yielded an interaction score of 2.16.
In the assay with Core_NNIN-es_KKKK, DENAALEAENAALEAEIAALEAENAALEG [Core_NNIN-es_EEEE] displayed an interaction score of 1.83.
Turning to DEIQQLEEEIRQLEQKNSQLKEKNQQLKY [P3SC2], the interaction score with P4SC2 [1] amounted to 1.12; with P4SC2 [2] it was 0.206.
As for DEIAALKAKNAALKAKNAALKAEIAALEG [4H1017-AA], the interaction score with 4H481-AA was -1.63; with 4H1082-AA, -2.19; with 4H2935-AA, -3.83; with 4H662-AA, 2.48; with 4H1103-AA, -1.61; with 4H327-AA it was -1.46. Moreover, the interaction score with 4H2608-AA is -1.64; in the assay with 4H1405-AA it was -1.79; in the assay with 4H4033-AA it was -2.3; with 4H3605-AA, 0.203; with 4H2211-AA, -1.35; with 4H3625-AA it was -1.94. Also, the interaction score with 4H2536-AA is -1.48; with 4H1350-AA it was -1.39; with 4H1198-AA, 0.565; with 4H3664-AA, -1.53; with 4H2726-AA, 0.98; in the assay with 4H3922-AA it was -0.887. The interaction score in the assay with 4H1017-AA is -1.79; with 4H2614-AA, 0.0732; with 4H369-AA, -1.44; with 4H2238-AA it was 1.64; with 4H2513-AA, -1.22; with 4H55-AA it was -1.6.
In the case of DENAALEAKIAALKAEIAALEAEIAALEG [Core_NIII-es_EKEE], the interaction score with Core_NIII-es_KEKK was determined as 1.92.
For the molecule DKNAQLKEENAALEEKIQQLKEKIQALKY [P10A], the interaction score is 0.616 in the assay with P3A; 0.405 in the assay with P11A; 0.349 in the assay with P1A; -0.322 with P10A; -0.507 with P8A; -0.26 with P12A. Also, the interaction score was -0.904 with P2A; 0.00329 with P6A; -0.619 with P4A; -0.424 with P5A; 1.36 in the assay with P7A; 2.37 in the assay with P9A.
